Reference: patent US20250066745A1, “MUTANTS AND USE THEREOF” (BGI SHENZHEN, priority 2021, published 2025)
Changes are numbered by the printed parent chain. In names and notes the source's numbering stands.

Columns and labels:
[1] = Luminescence activity assay of purified Gaussia luciferase mutants on coelenterazine derivative ZS2; format: biochemical; parameters: key to Activity of mutant relative to wild-type Gaussia luciferase without the signal peptide: ratio of mutant luminescence intensity to wild-type Gaussia luciferase; conditions: Substrate ZS2 (Table 16)
Description: (§1) In this Example, the protein concentration was determined with a BCA quantitative kit (Thermo Scientific™ Pierce™ BCA Protein Assay Kit) accurately. The purified luciferase obtained in Example 5 was diluted with diluent (50 mM Tris-HCl, pH 8.0, 100 mM NaCl, 0.1% (v/v) Tween-20) to 1 μg/mL. The diluted luciferase, taken for 10 μL, was moved into a black 96-well plate, then added with 90 μL of the substrates coelenterazine, fluoro-coelenterazine or coelenterazine derivative ZS2 (purchased from Biolab) which was diluted into 100 μM with the same diluent, and the luminescence intensity of the plate was read with a self-luminescence module of a microplate reader. The mutation site of the mutant, the measured luminescence intensity, the ratio of luminescence intensities of the advantageous mutants to the wild-type Gaussia luciferase without the signal peptide having the sequence shown in SEQ ID NO: 3 are shown in Table 15. The results of catalytic activity assay of the advantageous mutants relative to the wild-type Gaussia luciferase without the signal peptide having the sequence shown in SEQ ID NO: 3 on substrate coelenterazine are shown in FIG. 6. […] The results of catalytic activity assay of the advantageous mutants relative to the wild-type Gaussia luciferase without the signal peptide having the sequence shown in SEQ ID NO: 3 on substrate fluoro-coelenterazine are shown in FIG. 7.
(§2) The new mutant library constructed in Example 7 was screened and tested for substrate specificity. Expression and purification schemes were the same as that in Example 5, and the activity assay scheme was the same as that in Example 6. The respective catalytic activities of combinatorial mutants on coelenterazine, fluoro-coelenterazine or coelenterazine derivative ZS2, and coelenterazine derivative ZS26 (purchased from BIOLAB) were assayed, and comparisons among the substrate specificities of the combinatorial mutants were based on the ratios of catalytic activities on two corresponding substrates.

[2] = Luminescence activity assay of purified Gaussia luciferase mutants on coelenterazine; format: biochemical; parameters: key to Activity of mutant relative to wild-type Gaussia luciferase without the signal peptide: ratio of mutant luminescence intensity to wild-type Gaussia luciferase; conditions: Substrate CTZ (Table 16)
Description: as §1, §2

B1: K66N H79K P84L S103T E110A D123N L124M E128G V138E: Gaussia luciferase mutant (protein)
chain: MGVKVLFALICIAVAEAKPTENNEDFNIVAVASNFATTDLDADRGKLPGKKLPLEVLKEMEANARNAGCTRGCLICLSKIKCTLKMKKFIPGRCHTYEGDKETAQGGIGAAIVDIPEIPGFKNMEPMGQFIAQVDLCEDCTTGCLKGLANVQCSDLLKKWLPQRCATFASKIQGQVDKIKGAGGD
modifications: SIGNAL (1)..(17)
notes: Gaussia luciferase mutant
Activity of mutant relative to wild-type Gaussia luciferase without the signal peptide [1]: 1.709 | Activity of mutant relative to wild-type Gaussia luciferase without the signal peptide [2]: 1.111

B2: P84A E102S S103T A104G E110A L124M V138E: Gaussia luciferase mutant (protein)
chain: B1 chain with N66K, K79H, L84A, E102S, A104G, N123D, G128E
modifications: SIGNAL (1)..(17)
notes: Gaussia luciferase mutant
Activity of mutant relative to wild-type Gaussia luciferase without the signal peptide [1]: 4.457 | Activity of mutant relative to wild-type Gaussia luciferase without the signal peptide [2]: 0.375

B3: K66R P84A E102A S103I A104G E110A: Gaussia luciferase mutant (protein)
chain: B1 chain with N66R, K79H, L84A, E102A, T103I, A104G, N123D, M124L, G128E, E138V
modifications: SIGNAL (1)..(17)
notes: Gaussia luciferase mutant
Activity of mutant relative to wild-type Gaussia luciferase without the signal peptide [1]: 1.209 | Activity of mutant relative to wild-type Gaussia luciferase without the signal peptide [2]: 0.122

B4: K66R P84A E102S S103I A104G E110A L124M V138E: Gaussia luciferase mutant (protein)
chain: B1 chain with N66R, K79H, L84A, E102S, T103I, A104G, N123D, G128E
modifications: SIGNAL (1)..(17)
notes: Gaussia luciferase mutant
Activity of mutant relative to wild-type Gaussia luciferase without the signal peptide [1]: 0.587 | Activity of mutant relative to wild-type Gaussia luciferase without the signal peptide [2]: 1.302

B5: K66R E102D E110P V138D: Gaussia luciferase mutant (protein)
chain: B1 chain with N66R, K79H, L84P, E102D, T103S, A110P, N123D, M124L, G128E, E138D
modifications: SIGNAL (1)..(17)
notes: Gaussia luciferase mutant
Activity of mutant relative to wild-type Gaussia luciferase without the signal peptide [1]: 1.560 | Activity of mutant relative to wild-type Gaussia luciferase without the signal peptide [2]: 0.674

B6: K66R P84L E102D S103T E110A V138E: Gaussia luciferase mutant (protein)
chain: B1 chain with N66R, K79H, E102D, N123D, M124L, G128E
modifications: SIGNAL (1)..(17)
notes: Gaussia luciferase mutant
Activity of mutant relative to wild-type Gaussia luciferase without the signal peptide [1]: 3.079 | Activity of mutant relative to wild-type Gaussia luciferase without the signal peptide [2]: 0.626

B7: P84A E102A S103T E110A V138D: Gaussia luciferase mutant (protein)
chain: B1 chain with N66K, K79H, L84A, E102A, N123D, M124L, G128E, E138D
modifications: SIGNAL (1)..(17)
notes: Gaussia luciferase mutant
Activity of mutant relative to wild-type Gaussia luciferase without the signal peptide [1]: 4.252 | Activity of mutant relative to wild-type Gaussia luciferase without the signal peptide [2]: 0.174

B8: K66N P84L E102K E110P D123N: Gaussia luciferase mutant (protein)
chain: B1 chain with K79H, E102K, T103S, A110P, M124L, G128E, E138V
modifications: SIGNAL (1)..(17)
notes: Gaussia luciferase mutant
Activity of mutant relative to wild-type Gaussia luciferase without the signal peptide [1]: 0.112 | Activity of mutant relative to wild-type Gaussia luciferase without the signal peptide [2]: 0.172

B9: K66R E102K E110G D123N V138D: Gaussia luciferase mutant (protein)
chain: B1 chain with N66R, K79H, L84P, E102K, T103S, A110G, M124L, G128E, E138D
modifications: SIGNAL (1)..(17)
notes: Gaussia luciferase mutant
Activity of mutant relative to wild-type Gaussia luciferase without the signal peptide [1]: 1.611 | Activity of mutant relative to wild-type Gaussia luciferase without the signal peptide [2]: 1.000

B10: A42G Q152K S170S G174N Q175E K178S A182Y G183A: Gaussia luciferase mutant (protein)
chain: MGVKVLFALICIAVAEAKPTENNEDFNIVAVASNFATTDLDGDRGKLPGKKLPLEVLKEMEANARKAGCTRGCLICLSHIKCTPKMKKFIPGRCHTYEGDKESAQGGIGEAIVDIPEIPGFKDLEPMEQFIAQVDLCVDCTTGCLKGLANVKCSDLLKKWLPQRCATFASKIQNEVDSIKGYAGD
modifications: SIGNAL (1)..(17)
notes: Gaussia luciferase mutant
Activity of mutant relative to wild-type Gaussia luciferase without the signal peptide [1]: 1.751 | Activity of mutant relative to wild-type Gaussia luciferase without the signal peptide [2]: 0.736

B11: Q152H Q163D T167S S170N A182L G183A: Gaussia luciferase mutant (protein)
chain: B10 chain with G42A, K152H, Q163D, T167S, S170N, N174G, E175Q, S178K, Y182L
modifications: SIGNAL (1)..(17)
notes: Gaussia luciferase mutant
Activity of mutant relative to wild-type Gaussia luciferase without the signal peptide [1]: 0.698 | Activity of mutant relative to wild-type Gaussia luciferase without the signal peptide [2]: 1.197

B12: F26R N27D V29C A30G V31L A32D S33V A36V T37S: Gaussia luciferase mutant (protein)
chain: MGVKVLFALICIAVAEAKPTENNEDRDICGLDVNFVSTDLDADRGKLPGKKLPLEVLKEMEANARKAGCTRGCLICLSHIKCTPKMKKFIPGRCHTYEGDKESAQGGIGEAIVDIPEIPGFKDLEPMEQFIAQVDLCVDCTTGCLKGLANVQCSDLLKKWLPQRCATFASKIQGQVDKIKGAGGD
modifications: SIGNAL (1)..(17)
notes: Gaussia luciferase mutant
Activity of mutant relative to wild-type Gaussia luciferase without the signal peptide [1]: 0.128 | Activity of mutant relative to wild-type Gaussia luciferase without the signal peptide [2]: 1.308

B13: F26R V29D A30G A32D A36I T37A L40R: Gaussia luciferase mutant (protein)
chain: B12 chain with D27N, C29D, L31V, V33S, V36I, S37A, L40R
modifications: SIGNAL (1)..(17)
notes: Gaussia luciferase mutant
Activity of mutant relative to wild-type Gaussia luciferase without the signal peptide [1]: 2.460 | Activity of mutant relative to wild-type Gaussia luciferase without the signal peptide [2]: 0.453

B14: F26T N27N V29E V31I A32G S33V A36R T37G L40G: Gaussia luciferase mutant (protein)
chain: B12 chain with R26T, D27N, C29E, G30A, L31I, D32G, V36R, S37G, L40G
modifications: SIGNAL (1)..(17)
notes: Gaussia luciferase mutant
Activity of mutant relative to wild-type Gaussia luciferase without the signal peptide [1]: 1.995 | Activity of mutant relative to wild-type Gaussia luciferase without the signal peptide [2]: 0.940

B15: N27D V29S V31L A32V S33G A36N T37D L40R: Gaussia luciferase mutant (protein)
chain: B12 chain with R26F, C29S, G30A, D32V, V33G, V36N, S37D, L40R
modifications: SIGNAL (1)..(17)
notes: Gaussia luciferase mutant
Activity of mutant relative to wild-type Gaussia luciferase without the signal peptide [1]: 0.146 | Activity of mutant relative to wild-type Gaussia luciferase without the signal peptide [2]: 0.981

B16: F26R V29R A30V V31L S33G A36V T37R: Gaussia luciferase mutant (protein)
chain: B12 chain with D27N, C29R, G30V, D32A, V33G, S37R
modifications: SIGNAL (1)..(17)
notes: Gaussia luciferase mutant
Activity of mutant relative to wild-type Gaussia luciferase without the signal peptide [1]: 0.115 | Activity of mutant relative to wild-type Gaussia luciferase without the signal peptide [2]: 0.423

B17: F26S V29L A30G S33R T37K L40A: Gaussia luciferase mutant (protein)
chain: B12 chain with R26S, D27N, C29L, L31V, D32A, V33R, V36A, S37K, L40A
modifications: SIGNAL (1)..(17)
notes: Gaussia luciferase mutant
Activity of mutant relative to wild-type Gaussia luciferase without the signal peptide [1]: 0.787 | Activity of mutant relative to wild-type Gaussia luciferase without the signal peptide [2]: 1.067

B18: N27D V29E A30G V31I A32V S33K A36I T37D L40T: Gaussia luciferase mutant (protein)
chain: B12 chain with R26F, C29E, L31I, D32V, V33K, V36I, S37D, L40T
modifications: SIGNAL (1)..(17)
notes: Gaussia luciferase mutant
Activity of mutant relative to wild-type Gaussia luciferase without the signal peptide [1]: 1.379 | Activity of mutant relative to wild-type Gaussia luciferase without the signal peptide [2]: 0.779

B19: F26R V29F A30D V31L S33G T37D L40A: Gaussia luciferase mutant (protein)
chain: B12 chain with D27N, C29F, G30D, D32A, V33G, V36A, S37D, L40A
modifications: SIGNAL (1)..(17)
notes: Gaussia luciferase mutant
Activity of mutant relative to wild-type Gaussia luciferase without the signal peptide [1]: 1.781 | Activity of mutant relative to wild-type Gaussia luciferase without the signal peptide [2]: 1.017
